Consider 17 sequences from the DeepSol protein solubility set.

The nature of this series: soluble on expression in E. coli; label from the status in PepcDB or PDB records.
Turning to “MMFGRFTQRAQKVLALSQEEAMRLNHSNLGTEHILLGLVREGEGIAAKALYELGISSEKVQQEVEGLIGHGEKAVTTIQYTPRAKKVIELSMDEARKLGHTYVGTEHILLGLIREGEGVAARVLSNLGISLNKARQQVLQLLGGGDATGAGRQTNTQATPTLDSLARDLTVIAREDNLDPVIGRSKEIQRVIEVLSRRTKNNPVLIGEPGVGKTAIAEGLAQQIVRNEVPETLRGKRVMTLDMGTVVAGTKYRGEFEDRLKKVMDEIRQAGNVILFIDELHTLIGAGGAEGAIDASNILKPPLARGELQCIGATTLDEYRKYIEKDAALERRFQPIKVDEPTVEESIQILHGLRDRYEAHHRVAITDEALEAAVRLSDRYISDRFLPDKAIDVIDESGSKVRLKSFTTPKNVKEMENNLSDLKKEKDAAVQGQEFEKAASLRDKEQKLKKSLEETKANWQEKQGLDHSEVTEDIVAEVVASWTGIPVAKLAETETNKLLNMEKLLHERVIGQDAAVKAVSLAVRRARAGLKDPKRPIGSFIFLGPTGVGKTELARALAESMFGDEDSMIRIDMSEYMEKFSTARLVGAPPGYVGYEEGGQLTEKVRQKPYSVVLLDEIEKAHPDVFNMLLQVLDDGRLTDSKGRVVDFRNTVIIMTSNIGAQEMKQDKSMGFNVTDPLKDHKAMEHRVLQDLKQAFRPEFINRIDETIVFHSLQEKELKQIVTLLTAQLTKRLAERDIHVKLTEGAKSKIAKDGYDPEYGARPLKRAIQKEVEDMLSEELLRGNIKVGDYVEIGVKDGKLEVRKKDAPKKKTTSKKVKAK”, the “soluble on expression in E. coli” value is “not soluble”.
The entry for “MMHEKNIALLCDEADRLLQLNINLLRQMVDEPDVLSDSKNENGLLFDKRKALKRIEELEGEQIKTARREMVLAVVGTMKAGKSTTINAIVGQEILPNRNRPMTSVPTLIRHVPGKTEPVLHLEHIQPVRNLLITLQEKLATPAGQQVAQSLQQTGDTRELLDILADDVWLKNEYHGEDEIFTGLASLNDLVRLAAAMGTEFPFDEYAEVQKLPVIDVAFSHLVGMDACQGTLTLLDTPGPNEAGQPQMEMMMRDQLQKASAVLAVMDYTQMNSKADEEVRKELNAIADVSAGRLFVLVNKFDEKDRNGDGADAVRQKVPAMLNSDVLPASRVYPGSSRQAYLANRALHELRKNGALPVDEAWVDDFIREAFGPMVEEDDWKDSTKVNKKAEKLWNISLIDQLITEVIQSSHSRAAALAVDSAAAKLMQNAENVSEYLSLRHQGLQQSIQSLQAHITSLLADIQEIEECQNQVTGDVRMAMEDINTKTGELLTKVCASLEEELNDYFRSGKRKEQQMLEEENSAQPRERNAFAFFHDIFGTGNQHDRMRDFDPDSPEIKFSDRRAALELMTQIESTVTSLHREAEAQFRPELEKIVSGIETGFRGTALYATENIAGRINARLEDEGFTVKISFPAVSQLQTRLAVKINLSALMEERTETVTRRRRQSGVWGTVCRWFGTSDLGWENYDEDVSRSVININKAREEVMSLTRAYFGELQASIEQDINQPVRQEIDAFFCAFREKVEQLRNTLIQSSEDHKRDQQAQERLTGRLQALNERVPELITDSKALREELETML” is “not soluble”.
The entry for “MMHKRDQDYWIFSAELRDAKVKDDQSSKPQIVTPLGISIKRILCTGTVTSKQGDDRMTRITVADPVGNFYVIGFSNGFNPEEKAMLDKVSVDDRIMVIGKISSYRNTEGNYLFSIRPELVSKIDDEAMKFWSLKAYYFAKRRYYAIREAQKSENPAAEILKESGYTMVEAEAAMNAINNFPNYDYQKLFELIEPAMSSIGSSGAIAEARSMILDYIKNNDLDGKGCRYEDIVVAAKNAGIDQSTVDEILNSLGSLGEIFEVSLKRYKFVDTP” is “not soluble”; for “MMKEQNIPQDSLIAGYLPADYCDSFSRNVVSEKAITSDEFFDMAFNHSPGWVNGLMKLRNAIVKPLGLEVGMRFADTICEQNAQEVVFGMPDKHLTFHASLWCGEKEPGGQTFTITTVVKFNNRLGRLYFFFIRPFHKVIIRSMLKRVAKRLK” it is “not soluble”.
The entry for “MMKIAIIGSGISGLTCGYYLHRYHDITLFEANDYIGGHTATVDVELAGKPYAVDTGFIVYNDRTYPNFIKMMDEIGVQGKPTQMSFSVRNDANGLEYNGHTLTTLFAQKRNWLNPKFYRFIAEILRFNRLTKACVDNQLANEQTLGDFLAQHQFSEYFCENYILPMGAAIWSSSLADMRAFPLMFFARFFLNHGLLDVTNRPQWYVIPGGSRSYIAPLTQGFGDRIRLNSAVTQVKRLPSGVEVVVNGRSERFDEVIFACHSDQALAMLSDASSTEQQLLSALAYQANEVVLHTDTRLLPKRKAAWAAWNYWLKGEANQETRLPSLTYNMNILQHIEAPETFCVTLNSSEDIDPSKILRRFTYHHPVFSRPAIEAQQKKAQISGVNHTWFCGAYWHNGFHEDGVRSALDVVTQLEAYAQRSEQGAALEHHHHHH” is “soluble”; for “MMKRNLIGAFIAASTLLSSSVAFSQDKPAYETGMIPADHIMVPDGDIQASIFLISDANGWTEADETRAKALVEKGAAVVGIDFKEYLKALEADDDECIYMISDIESLSQQIQRTAGTGSYRLPIVTGIGKGGTLALAMIAQSPVSTVREAVAVDPKAGLPLEKILCTPATKDKVDGETVYGLTDGALPAPVSVIFTPDADQKGRDHVNALVKLHSDIEVTDVTDKADEVLTQTLSDKVDAAGDSGNPLGLPITVLEAKPVMDTMAVIYSGDGGWRDLDEEVGSALQKQGVPVIGVDALRYFWKEKDPKEVAGDLARIIDTYRKEWKVKNVVLIGYSFGADIIPATYNLLPDRVKSSVAQLSLLGLSNEVDFEISVQGWLGVAGEGKGGKTVDDIAKIDPKLVQCVYGTEEEDEDPCPGLKAKGVETIGIEGGHHFDEDYEALAKRIVTSLKTRLAKLEHHHHHH” it is “soluble”; for “MMNDSFCRIIAGEIQARPEQVDAAVRLLDEGNTVPFIARYRKEITGGLDDTQLRNLETRLSYLRELEERRQAILKSISEQGKLTDDLAKAINATLSKTELEDLYLPYKPKRRTRGQIAIEAGLEPLADLLWSDPSHTPEVAAAQYVYADKGVADTKAALDGARYILMERFAEDAALLAKVRDYLWKNAHLVSTVVSGKEEEGAKFRDYFDHHEPLSTVPSHRALAMFRGRNEGVLQLSLNADPQFDEPPKESYCEQIIMDHLGLRLNNAPADSWRKGVVSWTWRIKVLMHLETELMGTVRERAEDEAINVFARNLHDLLMAAPAGLRATMGLDPGLRTGVKVAVVDATGKLVATDTIYPHTGQAAKAAMTVAALCEKHNVELVAIGNGTASRETERFYLDVQKQFPKVTAQKVIVSEAGASVYSASELAAQEFPDLDVSLRGAVSIARRLQDPLAELVKIDPKSIGVGQYQHDVSQTQLARKLDAVVEDCVNAVGVDLNTASVPLLTRVAGLTRMMAQNIVAWRDENGQFQNRQQLLKVSRLGPKAFEQCAGFLRINHGDNPLDASTVHPEAYPVVERILAATQQALKDLMGNSSELRNLKASDFTDEKFGVPTVTDIIKELEKPGRDPRPEFKTAQFADGVETMNDLQPGMILEGAVTNVTNFGAFVDIGVHQDGLVHISSLSNKFVEDPHTVVKAGDIVKVKVLEVDLQRKRIALTMRLDEQPGETNARRGGGNERPQNNRPAAKPRGREAQPAGNSAMMDALAAAMGKKR” it is “soluble”.
For the sequence “MMPSQITRSSHSSLPEVAPASGDATGVSEQTPQQARTVAFFSSGELAVAFGRTSAAPEQDSVRLLSALQRELDKQHPSWHTVAQLCQSLAEVGTTEQGWHQLASEDQLPALRELLDRCTHRLADMPAAHASHDSLSQACEGLRTARLHQSVARLTARPSSLARAMADLLTLTHLDPETLGAEPPVISSYTLFSHFVRTAKQRTADLNDSLQRQPDAVVSLLRSHADTLNDLEMLPGALQALTENCQDAPARNELRELAEVAGALLQLLLEHDLLPRLEEISIEPGEA”, the “soluble on expression in E. coli” value was “not soluble”.
The entry for “MMQISSNGITRLKREEGERLKAYSDSRGIPTIGVGHTGKVDGNSVASGMTITAEKSSELLKEDLQWVEDAISSLVRVPLNQNQYDAMCSLIFNIGKSAFAGSTVLRQLNLKNYQAAADAFLLWKKAGKDPDILLPRRRRERALFLS” is “soluble”; for “MMRCPECSTEGWRVLPLTVGAHVKEGLWSKIKGDFYFCSLESCEVVYFNEQTVFRKGELKTRVGVKEREEPKPVCYCNRVTEKMLLEAAEKFGKEKAVEITGAGKGKWCVVTNPSGRCCHWHLERLGFPV” it is “soluble”.
The entry for “MMSKIFDLVVIGAGSGGLEAAWNAATLYKKRVAVIDVQMVHGPPFFSALGGTCVNVGCVPKKLMVTGAQYMEHLRESAGFGWEFDRTTLRAEWKNLIAVKDEAVLNINKSYDEMFRDTEGLEFFLGWGSLESKNVVNVRESADPASAVKERLETEHILLASGSWPHMPNIPGIEHCISSNEAFYLPEPPRRVLTVGGGFISVEFAGIFNAYKPKDGQVTLCYRGEMILRGFDHTLREELTKQLTANGIQILTKENPAKVELNADGSKSVTFESGKKMDFDLVMMAIGRSPRTKDLQLQNAGVMIKNGGVQVDEYSRTNVSNIYAIGDVTNRVMLTPVAINEAAALVDTVFGTTPRKTDHTRVASAVFSIPPIGTCGLIEEVASKRYEVVAVYLSSFTPLMHKVSGSKYKTFVAKIITNHSDGTVLGVHLLGDNAPEIIQGIGICLKLNAKISDFYNTIGVHPTSAEELCSMRTPSYYYVKGEKMEKPSEASL” is “soluble”.
The entry for “MMSYALVLAGNRLITSGALGTNAAAIRGAMRADPNLLTVILPQSLERQPRESRQQLDKVMHLVEKPENDHLPLAEASSLCNQEIIARCQQLICFAFHDSHTLLQTCELAEEQHKVVTLFYFDLEHHHHHH” is “not soluble”; for “MMTDKLNLNVLDAAFYSLEQTVVQISDRNWFDMQPSIVQDTLIAGAIQKFEFVYELSLKMMKRQLQQDAINTDDIGAYGFKDILREALRFGLIGDMSKWVAYRDMRNITSHTYDQEKAMAVYAQIDDFLIESSFLLEQLRQRNQYD” it is “soluble”.
“MNAEIASEIVAEIPLWSQELPDTQEIIASLISSNLFPLIYTEQDYLEIANASAGLYISDIIHCLTDIRKNHDLGNSSEIAKLLLAKKIQLLNRLYDIEFLPPPKVQLGGLELMQQSFKKFKRLLTPRAKQYNLRVPKGIMLEHHHHHH”: the “soluble on expression in E. coli” value is “not soluble”.
Consider “MNALPPAIFLMGPTAAGKTDLAIELSKVLPCELISVDSALVYRGMDIGTAKPSKAQLAEFPHRLIDILDPAQSYSAADFRSDALAAMAQITARGNIPLLVGGTMLYFKALLDGLADMPAANAAVRAQLEADAQAFGWQSLHDQLAVVDPVSAARIHPNDPQRLIRALEVYRVSGMSMTAHREQQTAQSTEAAASGCQQLPYTVANLAIAPADRKVLHQRIALRFEQMLDQGFLDEVLALRSRGDLHAGLPSIRAVGYRQVWDHLDGKLTREEMQERGIIATRQLAKRQFTWLRSWDDLHWLDSLASDNLSRALKYLGSVSILSLEHHHHHH”, for which the “soluble on expression in E. coli” value is “not soluble”.
With “MNANLPPSAISELHGPRLLLRAWRDSDREAFAEMCADPQVMEFFPSVLDRAQSDALVDRVQAHFAERGYGPWALELPGEAAFIGFTGLFDVTMDVHFAPTVEIGWRLAPAYWGRGLAREAAETALDFAFERLRLPEVVAFTTPPNRRSWGLMERLGMRRDPAEDFDHPLLAADHPMRRHILYRVDAARWAER”, the “soluble on expression in E. coli” value is “not soluble”.
For the sequence “MNDPLDSLSNDEFEIIETFDPETEDREDQWSIQQSIRIEPISIQMPNTLQSQRAPSPVGSKAPESLKDEDPDRTPEASIVETPLLTETLKEDRTPMSTPLASLVNSSQSPEFTLQNMSIVSESECSNNSSLVNVADVESTEIALRTSLLLVSELKSQLQAAKMSESTLLKSNSNHEIEENKKLSEKMEVMKNEFELKMQESAASVEKVIQEKDSAIEQLKVQLAQSQQVAELWKQGAEKNSNAQYSDSKTTIDRLLEENSKLRNLVDEEVARRLEESERRKLAEDQLKHARGGSVFDPPASFVASQLAERTTYSLNLEHELITLRKELEETKEALKKSVEESSNKDEIVSALHEDQQESTRMLASNEQVINSLKQKCRQLGVLEDFSS”, the “soluble on expression in E. coli” value was “soluble”.
